Measured values as given in patent publication US20240301064A1 (published 2024).
Where “and” joins values, the source holds several entries; their conditions need not be identical. Identical values can stand only once.

B1: PMAB134 (bispecific antibody, human IgG1, kappa)
heavy: EVQLLESGGGLVQPGGSLRLSCAASGFTFSNSDMSWVRQAPGKGLEWVSGITISGGSTYYADSVKGRFTISRDNSKNTLYLQMNSLRAEDTAVYYCARGRGGSGWLDYWGQGTLVTVSSASTKGPSVFPLAPSSKSTSGGTAALGCLVKDYFPEPVTVSWNSGALTSGVHTFPAVLQSSGLYSLSSVVTVPSSSLGTQTYICNVNHKPSNTKVDKKVEPKSCDKTHTCPPCPAPEAAGAPSVFLFPPKPKDTLMISRTPEVTCVVVDVSHEDPEVKFNWYVDGVEVHNAKTKPREEQYNSTYRVVSVLTVLHQDWLNGKEYKCKVSNKALPAPIEKTISKAKGQPREPQVYTLPPSREEMTKNQVSLTCLVKGFYPSDIAVEWESNGQPENNYKTTPPVLDSDGSFFLYSKLTVDKSRWQQGNVFSCSVMHEALHNHYTQKSLSLSPGGGGGSGGGGSGGGGSEVQLLESGGGLVQPGGSLRLSCAASGFTFSDFWMHWVRQAPGKGLEWISYISGDSGYTNYADSVKGRFTISRDNSKNTLYLQMNSLRAEDTAVYYCARDRPYYYYMDVWGKGTTVTVSSGGGGSGGGGSGGGGSGGGGSDIQMTQSPSSLSASVGDRVTITCRASQSVSRSLAWYQQKPGKAPKLLIYAASSLQSGVPSRFSGSGSGTDFTLTISSLQPEDFATYYCQQYKSYPVTFGQGTKVEIK
light: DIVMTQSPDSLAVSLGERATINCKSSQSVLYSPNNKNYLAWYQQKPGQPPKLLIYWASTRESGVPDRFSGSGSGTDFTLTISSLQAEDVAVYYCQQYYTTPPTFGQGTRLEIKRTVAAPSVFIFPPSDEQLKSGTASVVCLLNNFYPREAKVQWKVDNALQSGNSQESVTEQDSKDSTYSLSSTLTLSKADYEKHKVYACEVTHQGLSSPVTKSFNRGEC
B2: PMAB135 (bispecific antibody, human IgG1, kappa)
heavy: EVQLLESGGGLVQPGGSLRLSCAASGFTFSSSDMSWVRQAPGKGLEWVSGITISGGSTYYADSVKGRFTISRDNSKNTLYLQMNSLRAEDTAVYYCARGRGGSGWLDYWGQGTLVTVSSASTKGPSVFPLAPSSKSTSGGTAALGCLVKDYFPEPVTVSWNSGALTSGVHTFPAVLQSSGLYSLSSVVTVPSSSLGTQTYICNVNHKPSNTKVDKKVEPKSCDKTHTCPPCPAPEAAGAPSVFLFPPKPKDTLMISRTPEVTCVVVDVSHEDPEVKFNWYVDGVEVHNAKTKPREEQYNSTYRVVSVLTVLHQDWLNGKEYKCKVSNKALPAPIEKTISKAKGQPREPQVYTLPPSREEMTKNQVSLTCLVKGFYPSDIAVEWESNGQPENNYKTTPPVLDSDGSFFLYSKLTVDKSRWQQGNVFSCSVMHEALHNHYTQKSLSLSPGGGGGSGGGGSGGGGSEVQLLESGGGLVQPGGSLRLSCAASGFTFSDFWMHWVRQAPGKGLEWISYISGDSGYTNYADSVKGRFTISRDNSKNTLYLQMNSLRAEDTAVYYCARDRPYYYYMDVWGKGTTVTVSSGGGGSGGGGSGGGGSGGGGSDIQMTQSPSSLSASVGDRVTITCRASQSVSRSLAWYQQKPGKAPKLLIYAASSLQSGVPSRFSGSGSGTDFTLTISSLQPEDFATYYCQQYKSYPVTFGQGTKVEIK
light: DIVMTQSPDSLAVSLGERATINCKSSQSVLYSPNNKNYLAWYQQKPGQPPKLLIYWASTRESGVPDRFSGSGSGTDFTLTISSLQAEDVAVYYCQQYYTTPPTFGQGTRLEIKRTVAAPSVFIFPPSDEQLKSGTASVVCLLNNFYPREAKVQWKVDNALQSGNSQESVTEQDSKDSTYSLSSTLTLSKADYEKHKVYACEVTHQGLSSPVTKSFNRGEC
B3: PMAB136 (bispecific antibody, human IgG1, kappa)
heavy: EVQLLESGGGLVQPGGSLRLSCAASGFTFSNYDMSWVRQAPGKGLEWVSGITISGGSTYYADSVKGRFTISRDNSKNTLYLQMNSLRAEDTAVYYCARGRGGSGWLDYWGQGTLVTVSSASTKGPSVFPLAPSSKSTSGGTAALGCLVKDYFPEPVTVSWNSGALTSGVHTFPAVLQSSGLYSLSSVVTVPSSSLGTQTYICNVNHKPSNTKVDKKVEPKSCDKTHTCPPCPAPEAAGAPSVFLFPPKPKDTLMISRTPEVTCVVVDVSHEDPEVKFNWYVDGVEVHNAKTKPREEQYNSTYRVVSVLTVLHQDWLNGKEYKCKVSNKALPAPIEKTISKAKGQPREPQVYTLPPSREEMTKNQVSLTCLVKGFYPSDIAVEWESNGQPENNYKTTPPVLDSDGSFFLYSKLTVDKSRWQQGNVFSCSVMHEALHNHYTQKSLSLSPGGGGGSGGGGSGGGGSEVQLLESGGGLVQPGGSLRLSCAASGFTFSDFWMHWVRQAPGKGLEWISYISGDSGYTNYADSVKGRFTISRDNSKNTLYLQMNSLRAEDTAVYYCARDRPYYYYMDVWGKGTTVTVSSGGGGSGGGGSGGGGSGGGGSDIQMTQSPSSLSASVGDRVTITCRASQSVSRSLAWYQQKPGKAPKLLIYAASSLQSGVPSRFSGSGSGTDFTLTISSLQPEDFATYYCQQYKSYPVTFGQGTKVEIK
light: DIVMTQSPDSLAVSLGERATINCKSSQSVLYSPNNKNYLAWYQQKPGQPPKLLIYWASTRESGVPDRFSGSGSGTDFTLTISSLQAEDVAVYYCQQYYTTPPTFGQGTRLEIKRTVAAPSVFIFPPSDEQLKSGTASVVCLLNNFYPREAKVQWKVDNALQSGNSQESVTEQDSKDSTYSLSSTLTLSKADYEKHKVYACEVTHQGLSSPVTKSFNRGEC
B4: PMAB138 (bispecific antibody, human IgG1, kappa)
heavy: EVQLLESGGGLVQPGGSLRLSCAASGFTFSNSDMSWVRQAPGKGLEWVSAITISGGSTYYADSVKGRFTISRDNSKNTLYLQMNSLRAEDTAVYYCARGRGGSGWLDYWGQGTLVTVSSASTKGPSVFPLAPSSKSTSGGTAALGCLVKDYFPEPVTVSWNSGALTSGVHTFPAVLQSSGLYSLSSVVTVPSSSLGTQTYICNVNHKPSNTKVDKKVEPKSCDKTHTCPPCPAPEAAGAPSVFLFPPKPKDTLMISRTPEVTCVVVDVSHEDPEVKFNWYVDGVEVHNAKTKPREEQYNSTYRVVSVLTVLHQDWLNGKEYKCKVSNKALPAPIEKTISKAKGQPREPQVYTLPPSREEMTKNQVSLTCLVKGFYPSDIAVEWESNGQPENNYKTTPPVLDSDGSFFLYSKLTVDKSRWQQGNVFSCSVMHEALHNHYTQKSLSLSPGGGGGSGGGGSGGGGSEVQLLESGGGLVQPGGSLRLSCAASGFTFSDFWMHWVRQAPGKGLEWISYISGDSGYTNYADSVKGRFTISRDNSKNTLYLQMNSLRAEDTAVYYCARDRPYYYYMDVWGKGTTVTVSSGGGGSGGGGSGGGGSGGGGSDIQMTQSPSSLSASVGDRVTITCRASQSVSRSLAWYQQKPGKAPKLLIYAASSLQSGVPSRFSGSGSGTDFTLTISSLQPEDFATYYCQQYKSYPVTFGQGTKVEIK
light: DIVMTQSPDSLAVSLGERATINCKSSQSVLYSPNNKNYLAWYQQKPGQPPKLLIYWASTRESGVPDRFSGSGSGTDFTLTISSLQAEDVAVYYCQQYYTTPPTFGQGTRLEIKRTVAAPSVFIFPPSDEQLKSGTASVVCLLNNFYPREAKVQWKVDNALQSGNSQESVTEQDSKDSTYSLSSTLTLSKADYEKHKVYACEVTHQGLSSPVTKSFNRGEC
B5: PMAB139 (bispecific antibody, human IgG1, kappa)
heavy: EVQLLESGGGLVQPGGSLRLSCAASGFTFSNSDMSWVRQAPGKGLEWVSGISISGGSTYYADSVKGRFTISRDNSKNTLYLQMNSLRAEDTAVYYCARGRGGSGWLDYWGQGTLVTVSSASTKGPSVFPLAPSSKSTSGGTAALGCLVKDYFPEPVTVSWNSGALTSGVHTFPAVLQSSGLYSLSSVVTVPSSSLGTQTYICNVNHKPSNTKVDKKVEPKSCDKTHTCPPCPAPEAAGAPSVFLFPPKPKDTLMISRTPEVTCVVVDVSHEDPEVKFNWYVDGVEVHNAKTKPREEQYNSTYRVVSVLTVLHQDWLNGKEYKCKVSNKALPAPIEKTISKAKGQPREPQVYTLPPSREEMTKNQVSLTCLVKGFYPSDIAVEWESNGQPENNYKTTPPVLDSDGSFFLYSKLTVDKSRWQQGNVFSCSVMHEALHNHYTQKSLSLSPGGGGGSGGGGSGGGGSEVQLLESGGGLVQPGGSLRLSCAASGFTFSDFWMHWVRQAPGKGLEWISYISGDSGYTNYADSVKGRFTISRDNSKNTLYLQMNSLRAEDTAVYYCARDRPYYYYMDVWGKGTTVTVSSGGGGSGGGGSGGGGSGGGGSDIQMTQSPSSLSASVGDRVTITCRASQSVSRSLAWYQQKPGKAPKLLIYAASSLQSGVPSRFSGSGSGTDFTLTISSLQPEDFATYYCQQYKSYPVTFGQGTKVEIK
light: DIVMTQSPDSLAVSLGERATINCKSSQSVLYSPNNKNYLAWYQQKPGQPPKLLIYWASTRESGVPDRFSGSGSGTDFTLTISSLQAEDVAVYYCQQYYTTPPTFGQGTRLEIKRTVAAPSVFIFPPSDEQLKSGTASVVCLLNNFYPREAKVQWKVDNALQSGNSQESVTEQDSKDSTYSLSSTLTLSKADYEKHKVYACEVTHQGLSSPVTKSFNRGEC
B6: PMAB140 (bispecific antibody, human IgG1, kappa)
heavy: EVQLLESGGGLVQPGGSLRLSCAASGFTFSNSDMSWVRQAPGKGLEWVSGITGSGGSTYYADSVKGRFTISRDNSKNTLYLQMNSLRAEDTAVYYCARGRGGSGWLDYWGQGTLVTVSSASTKGPSVFPLAPSSKSTSGGTAALGCLVKDYFPEPVTVSWNSGALTSGVHTFPAVLQSSGLYSLSSVVTVPSSSLGTQTYICNVNHKPSNTKVDKKVEPKSCDKTHTCPPCPAPEAAGAPSVFLFPPKPKDTLMISRTPEVTCVVVDVSHEDPEVKFNWYVDGVEVHNAKTKPREEQYNSTYRVVSVLTVLHQDWLNGKEYKCKVSNKALPAPIEKTISKAKGQPREPQVYTLPPSREEMTKNQVSLTCLVKGFYPSDIAVEWESNGQPENNYKTTPPVLDSDGSFFLYSKLTVDKSRWQQGNVFSCSVMHEALHNHYTQKSLSLSPGGGGGSGGGGSGGGGSEVQLLESGGGLVQPGGSLRLSCAASGFTFSDFWMHWVRQAPGKGLEWISYISGDSGYTNYADSVKGRFTISRDNSKNTLYLQMNSLRAEDTAVYYCARDRPYYYYMDVWGKGTTVTVSSGGGGSGGGGSGGGGSGGGGSDIQMTQSPSSLSASVGDRVTITCRASQSVSRSLAWYQQKPGKAPKLLIYAASSLQSGVPSRFSGSGSGTDFTLTISSLQPEDFATYYCQQYKSYPVTFGQGTKVEIK
light: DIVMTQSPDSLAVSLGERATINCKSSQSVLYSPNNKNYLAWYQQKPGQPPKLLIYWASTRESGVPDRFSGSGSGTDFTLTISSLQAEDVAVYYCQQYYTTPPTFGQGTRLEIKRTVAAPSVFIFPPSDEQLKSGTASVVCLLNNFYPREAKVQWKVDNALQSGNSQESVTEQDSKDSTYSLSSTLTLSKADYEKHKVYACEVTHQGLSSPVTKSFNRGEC

Biological target: T1, human PD-1 (human, UniProt Q15116 25-167, limits assumed)
T1 construct: also called huPD-1
Assay: BLI, antibody on AHC tip, soluble PD-1

T1 sequence (Q15116 25-167 limits assumed): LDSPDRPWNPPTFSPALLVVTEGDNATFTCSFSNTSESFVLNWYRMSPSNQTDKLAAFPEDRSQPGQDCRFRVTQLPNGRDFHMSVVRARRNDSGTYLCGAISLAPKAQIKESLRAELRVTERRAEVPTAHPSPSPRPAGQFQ

Binder | Kd
B1 | 6 nM and 11.6 nM and 11.1 nM
B2 | 3 nM
B3 | 36 nM
B4 | 53 nM
B5 | 50 nM
B6 | 22 nM
